Experimental data reported in the supplement of paper PMC9170038.

What follows are sequences tested on MS2 coat protein (assay: apparent KD of MS2 coat protein; higher = weaker reporter binding). Details: Eterna round: R107; input ligand: arginine 13.2 mM.
In short: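 On-chip transcription from Illumina sequencing clusters produced the designed RNA switches. These were titrated with SNAP-549-labelled MS2 coat protein (twofold steps, 0.7 or 1.5 nM to 3 µM) in 100 mM Tris-HCl pH 7.5, 80 mM KCl, 4 mM MgCl2, with or without constant ligand. The apparent KD given is the per-design median of normalised cluster binding-curve fits.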

Sequence	apparent KD of MS2 coat protein
UGUAUGGACUGAAGGAGCGGUAGAUAGCUUGAGGAUCACCCAAGUAAUAAGGCGAAAGCCUACCAGGUAGGUCGCAGUCCAUACU	28 nM
UUUAACAAGAACGUCCUGAGUGACAAGCUACGAGGACCGGUACGGCCGCCACUCGUACCAAAACAUGAGGAUCACCCAUGUUAAA [theeternabot_exclusion_MS2_Trp_A_44]	13.4 nM
AACCGAGGCUAUCCUCUCCGACUAUGUGAUACCAGAAUAAUUUUAUUCCCUUGGCAGCAUGACAUGAGGAUCACCCAUGUCUCUU [SSTheo A #10]	16 nM
AGCGCUGUGCAUGAUACCAGCUACAUGAGGAUCACCCAUGUGCGUCAGAAAUGACUGUGUAGCCCUUGGCAGCAUAAAGCAUGUA [Exclusion - Theophylline B (Freestyle 8)]	19.7 nM
UGACAUUGCUCAGAUACCAGACAUGAGCAUCAGCCAUGUACCAAGAGUACAUAUUAAAAUGUCCCUUGGCAGCUGAGCAAUGUCU [Mod of Eli's TheoBX5 #AlternateMS2 v1]	15.2 nM
UAAUCCGGUCCUCGAUAGGUGAUCCUCUAACGAGGACCGGUACGGCCGCCACUCGAUAACAUGAGGAUCACCCAUGUAAUAAUAA [|T'-M'-Trp-Ms2|_Design16]	33 nM
UUAAUCGUGCAUGAUACCAGUAUCCGUAGAUACAUGAGGAUCACCCAUGUCUGGUUGGAAUACCCUUGGCAGCAUGGGUUGAGGA [theeternabot_sameState_MS2_Theo_B_20]	37.1 nM
AGAUUCGACACGGCCGCCACUUGUGGUGGAUUAUCCUAUGUAAGACAUGAGGAUCACCCAUGUACAAGGACCGGGUGUUGAGUCU [XTryp B #22]	108 nM
UAAUAGGUCCAGAACGUACCAGGUGAUCAACGAGGACCGGUACGGCCGCCACUCGAAACAUGAGGAUCACCCAUGUAACUGGACC [|T'-M'-Trp-Ms2|_Design 2_ML]	173 nM
AAUCAUGGAAACAUGACAUGAGGAUUACUCCGAGGACCGGUACGGCCGCCACUCGCGAGGAGGCGGACAUGAGGAUCACCCAUGU [#03 Tryptophan A Same State]	55.8 nM
GACCGGUUAUAGCGCGAUUGUCUUGUGGAAGGAGCGCAGAGGGCUGCAGGUAGGUCGCCACAUGAGGAUCACCCAUGUCAGGAAA [Biraesge]	28.1 nM
UUUUAAAGCAUGGCGUAUCGGAAAACCGAUACCAGUACAGAAAUGUACCCUUGGCAGCGGCAUUUUACAUGAGGAUCACCCAUGU [Ex Theophylline A 2]	16 nM
UUAUAUUCUCAAUCGCCAUGUGCUUUAGAUACCAGUCUGAUAAAUGACCCUUGGCAGCUAGAGACAUGAGGAUCACCCAUGUCUU [theeternabot_exclusion_MS2_Theo_A_8]	11.3 nM
UAGAUAGAGGGAAGGAGCGCAGUAACAUAACAUGAGGAUCACCCAUGUAAGAAAUUAAUAAUGCAGGUAGGUCGCCCAAGAUGAU [#10 Same State - Arginine B]	12.4 nM
CACGCACGAUCGGCCGCCACUCGUGUAGCUUACAUGAGGAUCACCCAUGUAUGUUCAUUCAUAUAGAGGACCGGGAUCGUGCGUG [#05 Same State - Tryptophan B]	9.09 nM
UGUAUGUGAUCUGAUACCAGAGUUGAUAACCUGAGGAUCACCCUGGUAAGGCGAAAGCCACUCCCUUGGCAGCAGAUCGCAUACU	131 nM
CUACAUUUGUAGAAACCGGUCAACAUUAUUCGAGGACCGGUACGGCCGCCACUCGUAUCAUUUGAUACAUGAGGAUCACCCAUGU [Tryptophan A 8]	21.1 nM
GGAAACCCGACGGCCGCCACUAACGGUCUCAAAAGAGGUUGAACACAUGAGGAUCACCCAUGUAAUAGGACCGGGUCGUGUGAAA [Design 1]	17.9 nM

Sequence	apparent KD of MS2 coat protein
AGUCUUAAUGGAAGGAGCGCAGUCAUAACAUGAGGAUCACCCAUGUCGAGGUGAGGGUCAUUGCAGGUAGGUCGCCAUACUAGGA [Same State - Arginine B (Freestyle 2)]	84.6 nM
CAAUAGAUAGCGGCCGCCACUUACUCAUGAGGUAACAACAUGAGGAUCACCCAUGUUUGAGGAUCAAGGACCGGGCUAUUUAUUG [AstrosSSTryB#7]	29.1 nM
GCGAUGGAGCGAAGGAGCGGCUGUGACUACAUGAGGAUCACCCAUGUACGAUUGUAAGGUAGCCAGGUAGGUCGCGCUCCAUCGC [SSAB NP+V+V2 #18]	14 nM
UCGGACAUGAGGAUCACCCAUGUAAAUCCUCGAGGACCGGUACGGCCGCCACUCGAACGAGUGGCGCGCGAGCGCGCGCUCGCGC [aGa]	20.4 nM
GCACCAGGUACGGAUACCAGAGCAAGCCAAAUGAGUGAACAUGAGGAUCACCCAUGUUUGCUCCCUUGGCAGCCGUACCUGGUGC [ETB NP+V+V2 #11 +-Same Structure]	7.91 nM
UAUCGACACUGAAGGAGCGAGAUGACAAACAUGAGGAUCACCCAUGUUAUGGGUUGUUAAUCUCAGGUAGGUCGCAGUGGUCGCA [Same State Arginine B GF 18]	67.8 nM
UCGUUUUAGUCGGCCGCCACUGUAUGCAUGUUUAACAUGAGGAUCACCCAUGUCCCGUACUAUAACAGGACCGGGACGUAAUAGA [JR_SSTryptoB_Sub006]	112 nM
AAGUCAGGAGGCGAUACCAGUUACGACAUGGCCAGUUACAUGAGGAUCACCCAUGUGCGGAACCCUUGGCAGCGCUUACAUCGCU [theeternabot_exclusion_MS2_Theo_B_1]	22.5 nM
CUAUGUAUAUAUGCGAAAGCUACGUGUUGACGAGGACCGGUACGGCCGCCACUCGACAUGAGGAUCACCCAUGUAAUAUAUAUAG [BMP_BFE]	102 nM
UCGGGAACAUGAGGAUCACCCAUGUCAGAAGGAGCGCUGAGAGAAGCAGGUAGGUCGCUGACGUAGGAGCUCUCUUCCUAUACGC [Exclusion - Arginine A]	23.3 nM
AUGUAGAACCGAAGGAGCGCGAUGACAUGAGGAUCACCCAUGUAUUUGUGGUGGCUUCGAUCGCAGGUAGGUCGCGGAAGUAGUA [#04 Exclusion - Arginine B]	96.6 nM
CUACAUGGGCUCGAUACCAGUCAGCUCUCGCGUCUCUCAGACAUGAGGAUCACCCAUGUUGACCCUUGGCAGCGACGAUGUAGGC [theeternabot_exclusion_MS2_Theo_B_46]	51.1 nM
AAUUGAAACAGAGGUAUAUACGGACAUUACCGAGGACCGGUACGGCCGCCACUCGACCUAAAACAUGAGGAUCACCCAUGUAGCA [theeternabot_exclusion_MS2_Trp_A_20]	12.6 nM
ACAUGAGGAUCACCCAUGUUAAACACAGAAGGAGCGUGAAGGAACACAGGUAGGUCGCUGUACUUAUUGAGUAUUCACUCGAUAC [JR_Nu_SSArginiA_Sub028]	14.9 nM
AUUCAUGGAAACAUGACAUACAUAACCGGUCGAGGACCGGUACGGCCGCCACUCGUUUGGAGGCACAUGAGGAUCACCCAUGUUA [SS Tryp A #9]	21.7 nM
GGGCCCGGGCGCGAGCCCGGGCCCAUUGAUACCAGUGAUAUAUAACGCCCUUGGCAGCGAAUCCUAACAUGAGGAUCACCCAUGU [5.G]	35.2 nM
UGCGGACAUGAGGAUCACCCAUGUGCGGAUACCAGCAGCCGGCUCUGCCCUUGGCAGCCGCUACCCUUGCACGUUUAACGAUCCA [theeternabot_sameState_MS2_Theo_A_27]	31.9 nM
GUGUGCGGCACGGCCGCCACUGCGGUGGUGUGACAUGAGGAUCACCCAUGUUGUCAUGCGGCCCUUAGGACCGGGUGGCGUGCAC [#1 Exclusion - Tryptophan B Attempt #17 (HarryS)]	27.4 nM
